Patent US20220298260A1 (MYTHIC THERAPEUTICS, published 2022)
Numbering of substitutions follows the chain as printed.

B1: MYT2188 (antibody, V domains shown)
VH: EVQLVESGGGVVQPGRSLRLSCSASGFTHSGYGLSWVRQAPGKGLEWVAMISSGGSYTYYADSVKGRFAISRDNAKNTLFLQMDSLRPEDTGVYFCARHGDDPAWFAYWGQGTPVTVSS
VL: DIQLTQSPSSLSASVGDRVTITCSVSSSISSNNLHWYQQKPGKAPKPWIYGTSNLASGVPSRFSGSGSGTDYTFTISSLQPEDIATYYCQQWSSYPYMYTFGQGTKVEIK
notes: IgG
B2: MYT2208 (antibody, V domains shown)
VH: B1 VH with H29F, S63H
VL: B1 VL
notes: IgG
B3: MYT2209 (antibody, V domains shown)
VH: B1 VH with H29F, V64H
VL: B1 VL
notes: IgG
B4: MYT4521 (antibody, V domains shown)
VH: B1 VH with H29F
VL: B1 VL with S28H
notes: IgG
B5: MYT2190 (antibody, V domains shown)
VH: B1 VH with H29F, G31H
VL: B1 VL
notes: IgG
B6: MYT2191 (antibody, V domains shown)
VH: B1 VH with H29F, Y32H
VL: B1 VL
notes: IgG
B7: MYT4527 (antibody, V domains shown)
VH: B1 VH with H29F
VL: B1 VL with L34H
notes: IgG
B8: MYT4533 (antibody, V domains shown)
VH: B1 VH with H29F
VL: B1 VL with L55H
notes: IgG
B9: MYT4524 (antibody, V domains shown)
VH: B1 VH with H29F
VL: B1 VL with S31H
notes: IgG
B10: MYT4528 (antibody, V domains shown)
VH: B1 VH with H29F
VL: B1 VL with H35A
notes: IgG
B11: MYT2193 (antibody, V domains shown)
VH: B1 VH with H29F, L34H
VL: B1 VL
notes: IgG
B12: MYT4532 (antibody, V domains shown)
VH: B1 VH with H29F
VL: B1 VL with N54H
notes: IgG
B13: MYT4535 (antibody, V domains shown)
VH: B1 VH with H29F
VL: B1 VL with S57H
notes: IgG
B14: MYT2218 (antibody, V domains shown)
VH: B1 VH with H29F, P103H
VL: B1 VL
notes: IgG
B15: MYT2204 (antibody, V domains shown)
VH: B1 VH with H29F, Y59H
VL: B1 VL
notes: IgG
B16: MYT2214 (antibody, V domains shown)
VH: B1 VH with H29F, H99A
VL: B1 VL
notes: IgG
B17: MYT2205 (antibody, V domains shown)
VH: B1 VH with H29F, Y60H
VL: B1 VL
notes: IgG
B18: MYT2198 (antibody, V domains shown)
VH: B1 VH with H29F, S53H
VL: B1 VL
notes: IgG
B19: MYT4530 (antibody, V domains shown)
VH: B1 VH with H29F
VL: B1 VL with T52H
notes: IgG
B20: MYT2223 (antibody, V domains shown)
VH: B1 VH with H29F, Y108H
VL: B1 VL
notes: IgG
B21: MYT4538 (antibody, V domains shown)
VH: B1 VH with H29F
VL: B1 VL with W92H
notes: IgG
B22: MYT2210 (antibody, V domains shown)
VH: B1 VH with H29F, K65H
VL: B1 VL
notes: IgG
B23: MYT2220 (antibody, V domains shown)
VH: B1 VH with H29F, W105H
VL: B1 VL
notes: IgG
B24: MYT4534 (antibody, V domains shown)
VH: B1 VH with H29F
VL: B1 VL with A56H
notes: IgG
B25: MYT4520 (antibody, V domains shown)
VH: B1 VH with H29F
VL: B1 VL with S27H
notes: IgG
B26: MYT2207 (antibody, V domains shown)
VH: B1 VH with H29F, D62H
VL: B1 VL
notes: IgG
B27: MYT4531 (antibody, V domains shown)
VH: B1 VH with H29F
VL: B1 VL with S53H
notes: IgG
B28: MYT4539 (antibody, V domains shown)
VH: B1 VH with H29F
VL: B1 VL with S93H
notes: IgG
B29: MYT2199 (antibody, V domains shown)
VH: B1 VH with H29F, G54H
VL: B1 VL
notes: IgG
B30: MYT2201 (antibody, V domains shown)
VH: B1 VH with H29F, S56H
VL: B1 VL
notes: IgG
B31: MYT4529 (antibody, V domains shown)
VH: B1 VH with H29F
VL: B1 VL with G51H
notes: IgG
B32: MYT2202 (antibody, V domains shown)
VH: B1 VH with H29F, Y57H
VL: B1 VL
notes: IgG
B33: MYT2211 (antibody, V domains shown)
VH: B1 VH with H29F, G66H
VL: B1 VL
notes: IgG
B34: MYT4536 (antibody, V domains shown)
VH: B1 VH with H29F
VL: B1 VL with Q90H
notes: IgG
B35: MYT4537 (antibody, V domains shown)
VH: B1 VH with H29F
VL: B1 VL with Q91H
notes: IgG
B36: MYT4522 (antibody, V domains shown)
VH: B1 VH with H29F
VL: B1 VL with I29H
notes: IgG
B37: MYT4541 (antibody, V domains shown)
VH: B1 VH with H29F
VL: B1 VL with Y95H
notes: IgG
B38: MYT2206 (antibody, V domains shown)
VH: B1 VH with H29F, A61H
VL: B1 VL
notes: IgG
B39: MYT4523 (antibody, V domains shown)
VH: B1 VH with H29F
VL: B1 VL with S30H
notes: IgG
B40: MYT2189 (antibody, V domains shown)
VH: B1 VH with H29F, S30H
VL: B1 VL
notes: IgG
B41: MYT2216 (antibody, V domains shown)
VH: B1 VH with H29F, D101H
VL: B1 VL
notes: IgG
B42: MYT2192 (antibody, V domains shown)
VH: B1 VH with H29F, G33H
VL: B1 VL
notes: IgG
B43: MYT4540 (antibody, V domains shown)
VH: B1 VH with H29F
VL: B1 VL with S94H
notes: IgG
B44: MYT2222 (antibody, V domains shown)
VH: B1 VH with H29F, A107H
VL: B1 VL
notes: IgG
B45: MYT2203 (antibody, V domains shown)
VH: B1 VH with H29F, T58H
VL: B1 VL
notes: IgG
B46: MYT4526 (antibody, V domains shown)
VH: B1 VH with H29F
VL: B1 VL with N33H
notes: IgG

Molecular target: T1, FOLR1 (R&D Systems, Cat #5646-FR) (human, UniProt P15328 25-233)
T1 construct: Bought soluble protein; also called Folate Receptor 1
Assay: BLI, IgG on anti-human Fc sensor, 50 nM FOLR1

T1 sequence (P15328 25-233 limits assumed): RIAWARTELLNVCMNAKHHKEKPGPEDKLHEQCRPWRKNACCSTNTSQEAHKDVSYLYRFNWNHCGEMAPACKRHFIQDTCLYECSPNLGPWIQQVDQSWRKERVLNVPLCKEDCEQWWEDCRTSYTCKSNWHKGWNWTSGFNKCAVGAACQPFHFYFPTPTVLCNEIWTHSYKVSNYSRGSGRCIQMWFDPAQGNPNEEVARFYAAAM

Binder | binding result
B1 | binds
B2 | binds
B3 | binds
B4 | binds
B5 | binds
B6 | binds
B7 | binds
B8 | binds
B9 | binds
B10 | binds
B11 | binds
B12 | binds
B13 | binds
B14 | binds
B15 | binds
B16 | binds
B17 | binds
B18 | binds
B19 | binds
B20 | binds
B21 | binds
B22 | binds
B23 | binds

Binder | binding result
B24 | binds
B25 | binds
B26 | binds
B27 | binds
B28 | binds
B29 | binds
B30 | binds
B31 | binds
B32 | binds
B33 | binds
B34 | binds
B35 | binds
B36 | binds
B37 | binds
B38 | binds
B39 | binds
B40 | binds
B41 | binds
B42 | binds
B43 | binds
B44 | binds
B45 | binds
B46 | binds
